According to US20220204643A1 (published 2022):

Columns and labels:
[1] = biological target: T1, phospholipase C delta 1, transcript variant 2 (human, UniProt P51178 1-756); assay: protein array
T1 construct: on protein array; also called PLCD1
T1 sequence: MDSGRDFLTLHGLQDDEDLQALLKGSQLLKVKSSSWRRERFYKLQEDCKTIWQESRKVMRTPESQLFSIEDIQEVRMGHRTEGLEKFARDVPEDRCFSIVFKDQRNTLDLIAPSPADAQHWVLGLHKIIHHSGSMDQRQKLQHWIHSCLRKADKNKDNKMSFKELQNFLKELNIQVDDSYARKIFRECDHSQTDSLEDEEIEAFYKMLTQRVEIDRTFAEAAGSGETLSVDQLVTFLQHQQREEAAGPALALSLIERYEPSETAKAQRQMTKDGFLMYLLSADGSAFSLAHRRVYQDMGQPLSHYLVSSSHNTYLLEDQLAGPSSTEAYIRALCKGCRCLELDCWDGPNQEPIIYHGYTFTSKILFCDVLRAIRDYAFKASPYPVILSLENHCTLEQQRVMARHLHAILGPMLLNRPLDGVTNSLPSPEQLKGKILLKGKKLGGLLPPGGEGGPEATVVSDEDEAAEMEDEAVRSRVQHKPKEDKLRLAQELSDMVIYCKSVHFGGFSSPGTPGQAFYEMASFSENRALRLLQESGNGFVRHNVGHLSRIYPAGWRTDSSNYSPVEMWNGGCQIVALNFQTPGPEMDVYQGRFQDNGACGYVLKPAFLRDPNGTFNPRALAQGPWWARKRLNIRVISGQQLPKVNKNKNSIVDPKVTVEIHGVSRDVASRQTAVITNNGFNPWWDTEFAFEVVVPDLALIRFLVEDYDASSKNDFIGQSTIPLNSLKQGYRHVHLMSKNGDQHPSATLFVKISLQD

[2] = biological target: T2, PNMA family member 5, transcript variant 2 (human, UniProt Q96PV4 1-448); assay: protein array
T2 construct: on protein array; also called PNMA5
T2 sequence (Q96PV4 other isoform, or with tags, fused parts or gaps mutant limits assumed): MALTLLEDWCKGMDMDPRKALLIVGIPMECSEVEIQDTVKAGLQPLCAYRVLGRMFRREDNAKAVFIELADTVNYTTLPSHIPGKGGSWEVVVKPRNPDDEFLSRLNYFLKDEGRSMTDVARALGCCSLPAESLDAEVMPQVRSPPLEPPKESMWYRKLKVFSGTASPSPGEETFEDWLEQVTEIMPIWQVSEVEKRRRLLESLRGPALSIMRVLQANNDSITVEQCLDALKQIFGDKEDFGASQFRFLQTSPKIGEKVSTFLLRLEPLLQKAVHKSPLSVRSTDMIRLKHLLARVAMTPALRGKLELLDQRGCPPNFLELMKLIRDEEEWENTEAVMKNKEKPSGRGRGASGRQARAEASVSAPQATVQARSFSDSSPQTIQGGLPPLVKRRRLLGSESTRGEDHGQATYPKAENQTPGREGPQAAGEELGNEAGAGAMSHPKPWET

[3] = biological target: T3, zinc finger protein 326, transcript variant 1 (human, UniProt Q5BKZ1 1-582); assay: protein array
T3 construct: on protein array; also called ZNF326
T3 sequence: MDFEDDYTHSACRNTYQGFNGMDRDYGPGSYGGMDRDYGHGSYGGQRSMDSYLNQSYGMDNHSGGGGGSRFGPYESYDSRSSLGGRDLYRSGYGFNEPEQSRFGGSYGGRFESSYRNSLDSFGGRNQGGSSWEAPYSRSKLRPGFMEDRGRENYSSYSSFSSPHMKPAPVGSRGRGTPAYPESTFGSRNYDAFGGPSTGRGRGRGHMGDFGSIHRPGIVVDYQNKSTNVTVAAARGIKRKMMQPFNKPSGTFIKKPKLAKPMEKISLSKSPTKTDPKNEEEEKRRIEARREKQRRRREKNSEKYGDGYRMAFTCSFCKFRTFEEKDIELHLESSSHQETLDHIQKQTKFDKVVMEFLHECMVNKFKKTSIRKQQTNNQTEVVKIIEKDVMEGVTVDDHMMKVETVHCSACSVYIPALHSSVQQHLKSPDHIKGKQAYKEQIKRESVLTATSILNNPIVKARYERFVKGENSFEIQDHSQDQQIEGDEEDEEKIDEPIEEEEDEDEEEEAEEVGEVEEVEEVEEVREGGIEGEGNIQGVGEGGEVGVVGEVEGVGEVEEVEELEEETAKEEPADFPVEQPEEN

[4] = biological target: T4, acyl-CoA binding domain containing 6 (human, UniProt Q9BR61 1-282)
T4 construct: also called ACBD6
T4 sequence: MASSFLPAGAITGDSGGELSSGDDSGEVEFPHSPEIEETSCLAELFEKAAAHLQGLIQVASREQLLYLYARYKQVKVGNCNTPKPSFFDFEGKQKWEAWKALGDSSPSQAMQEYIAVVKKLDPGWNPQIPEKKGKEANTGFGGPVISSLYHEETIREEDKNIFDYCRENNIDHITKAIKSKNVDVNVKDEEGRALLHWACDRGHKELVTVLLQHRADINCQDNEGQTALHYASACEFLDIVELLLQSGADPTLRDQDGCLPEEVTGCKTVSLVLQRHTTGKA

phosducin like = biological target: T5, phosducin like (human, UniProt Q13371 2-301)
T5 construct: also called PDCL
T5 sequence: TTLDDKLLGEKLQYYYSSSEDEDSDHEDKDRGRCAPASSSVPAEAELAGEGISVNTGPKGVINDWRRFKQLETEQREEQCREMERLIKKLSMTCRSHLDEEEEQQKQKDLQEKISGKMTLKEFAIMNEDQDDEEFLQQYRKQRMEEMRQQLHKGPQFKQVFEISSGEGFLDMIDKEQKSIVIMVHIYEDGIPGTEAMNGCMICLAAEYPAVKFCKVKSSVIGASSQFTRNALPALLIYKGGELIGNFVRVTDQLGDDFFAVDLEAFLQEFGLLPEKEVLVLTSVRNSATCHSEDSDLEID

[5] = biological target: T6, G protein-coupled receptor 4 (human, UniProt P46093 1-362)
T6 construct: also called GPR4
T6 sequence (P46093 whole entry): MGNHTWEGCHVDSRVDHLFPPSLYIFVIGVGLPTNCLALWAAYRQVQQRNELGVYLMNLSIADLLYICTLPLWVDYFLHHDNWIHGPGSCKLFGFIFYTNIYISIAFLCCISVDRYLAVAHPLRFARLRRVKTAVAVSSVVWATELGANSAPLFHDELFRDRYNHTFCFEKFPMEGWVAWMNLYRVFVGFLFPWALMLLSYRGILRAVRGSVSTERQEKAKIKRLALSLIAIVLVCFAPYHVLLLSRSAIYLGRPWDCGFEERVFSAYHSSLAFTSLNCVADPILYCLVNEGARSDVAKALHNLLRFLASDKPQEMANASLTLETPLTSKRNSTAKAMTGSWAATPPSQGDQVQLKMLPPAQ

Dexd-box helicase 52 = biological target: T7, Dexd-box helicase 52 (human, UniProt Q9Y2R4 1-599)
T7 construct: also called DDX52
T7 sequence: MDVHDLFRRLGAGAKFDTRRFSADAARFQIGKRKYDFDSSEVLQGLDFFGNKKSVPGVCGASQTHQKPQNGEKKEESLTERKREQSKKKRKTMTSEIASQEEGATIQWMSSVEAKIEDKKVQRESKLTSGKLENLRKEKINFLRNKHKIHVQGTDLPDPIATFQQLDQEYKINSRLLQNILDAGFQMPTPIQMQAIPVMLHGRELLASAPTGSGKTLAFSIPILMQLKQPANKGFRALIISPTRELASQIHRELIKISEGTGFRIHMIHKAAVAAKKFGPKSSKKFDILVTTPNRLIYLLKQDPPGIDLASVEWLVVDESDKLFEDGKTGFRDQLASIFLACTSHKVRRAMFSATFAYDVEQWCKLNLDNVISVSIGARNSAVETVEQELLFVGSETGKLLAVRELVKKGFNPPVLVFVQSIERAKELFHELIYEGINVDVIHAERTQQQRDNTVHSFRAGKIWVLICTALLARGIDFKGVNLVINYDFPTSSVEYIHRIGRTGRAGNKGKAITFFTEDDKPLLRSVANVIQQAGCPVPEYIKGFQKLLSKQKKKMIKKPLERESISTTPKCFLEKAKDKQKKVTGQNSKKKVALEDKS

[6] = biological target: T8, aarF domain containing kinase 5 (human, UniProt Q3MIX3 1-580)
T8 construct: also called ADCK5
T8 sequence (Q3MIX3 other isoform, or with tags, fused parts or gaps limits assumed): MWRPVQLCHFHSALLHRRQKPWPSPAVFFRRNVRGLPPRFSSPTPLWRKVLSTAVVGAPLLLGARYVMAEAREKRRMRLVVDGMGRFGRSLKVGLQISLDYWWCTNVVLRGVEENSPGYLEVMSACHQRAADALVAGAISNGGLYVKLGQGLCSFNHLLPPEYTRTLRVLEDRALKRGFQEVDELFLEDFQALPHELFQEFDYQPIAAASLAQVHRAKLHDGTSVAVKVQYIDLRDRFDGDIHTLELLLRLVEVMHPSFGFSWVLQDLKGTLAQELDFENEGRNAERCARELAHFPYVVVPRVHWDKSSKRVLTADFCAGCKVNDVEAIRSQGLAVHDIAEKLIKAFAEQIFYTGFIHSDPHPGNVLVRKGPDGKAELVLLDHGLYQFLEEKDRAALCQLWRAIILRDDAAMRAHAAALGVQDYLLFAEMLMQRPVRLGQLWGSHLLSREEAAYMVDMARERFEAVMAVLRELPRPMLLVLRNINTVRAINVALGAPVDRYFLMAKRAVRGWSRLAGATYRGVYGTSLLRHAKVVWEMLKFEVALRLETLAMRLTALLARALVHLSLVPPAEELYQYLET

G antigen 2A = biological target: T9, G antigen 2A (human, UniProt Q6NT46 1-116)
T9 construct: also called GAGE2A
T9 sequence: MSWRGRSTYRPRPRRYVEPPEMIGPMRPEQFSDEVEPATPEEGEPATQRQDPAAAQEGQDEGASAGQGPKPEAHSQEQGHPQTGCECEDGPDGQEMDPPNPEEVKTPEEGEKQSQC

[7] = biological target: T10, proliferating cell nuclear antigen, transcript variant 1 (human, UniProt P12004 1-261)
T10 construct: also called PCNA
T10 sequence (P12004 whole entry, change not shown): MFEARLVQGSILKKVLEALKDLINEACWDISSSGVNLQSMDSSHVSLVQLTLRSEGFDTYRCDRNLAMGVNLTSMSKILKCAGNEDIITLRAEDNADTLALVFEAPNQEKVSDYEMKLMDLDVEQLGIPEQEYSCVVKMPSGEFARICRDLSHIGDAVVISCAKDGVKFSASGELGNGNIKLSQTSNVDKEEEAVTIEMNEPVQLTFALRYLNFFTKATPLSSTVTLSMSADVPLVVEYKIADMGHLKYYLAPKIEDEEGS

[8] = biological target: BAF chromatin remodeling complex subunit BCL7C, transcript variant 2 (human, UniProt Q8WUZ0 1-217)
cancer/testis antigen 1A = biological target: T11, cancer/testis antigen 1A (human, UniProt P78358 1-180)
T11 construct: also called CTAG1A
T11 sequence (P78358 whole entry): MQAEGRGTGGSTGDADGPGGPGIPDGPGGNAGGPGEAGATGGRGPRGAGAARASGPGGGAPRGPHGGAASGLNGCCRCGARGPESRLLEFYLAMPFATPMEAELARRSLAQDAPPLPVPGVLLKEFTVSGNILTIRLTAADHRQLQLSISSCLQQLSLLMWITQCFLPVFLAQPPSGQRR

B1: TBRE1039 (antibody, V domains shown)
VH: PVQLVQSGAEVKKPGSSVKVSCKASGGTFSSYAISWVRQAPGQGLEWMGGIIPIFGTANYAQKFQGRVTITADESTSTAYMELSSLRSEDTAVYYCARENWNSAGTTEWFDPWGQGTLVTVSS
VL: PYVLTQPPSVSVAPGKTARITCGGNNIGSKSVHWYQQKPGQAPVLVIYYDSDRPSGIPERFSGSNSGNTATLTISRVEAGDEADYYCQVWDSSSDHYVVFGGGTKLTVLG
notes: VH/VL only
B1: binds [1]; binds [2]; binds [3].

B2: TTES1006 (antibody, V domains shown)
VH: EVQLVESGGGLVQPGGSLRLSCAASGFTFSKFWMHWVRQAPGKGLVWLSRINTDGTVTTYADSVKGRFTISRDNAKSTLYLQMNSLRVEDTAVYYCAGGGSQVDFWGQGTLVTVSS
VL: PYELTQPPSVSVSPGQTASIACSGDNLGNKYAWWYRQKPGQSPVLVMYKDNKRPSGIPERFSGSNSGNTATLTISGTQAMDEADYYCQTWDSSTVIFGGGTKLTVQ
B2: binds [4].

B3: TTES1007 (antibody, V domains shown)
VH: QITLKESGPTLVKPTQTLTLTCTFSGFSLTTTGVGVGWIRQPPGKALEWLALIYWDDDKRYSPSLKSRLIITKDTSKNQVVLTMTNMDPVDTATYYCAHRFGRGVSYYYYGMDVWGQGTTVTVSS
VL: not shown
B3: binds (phosducin like).

B4: TTES1008 (antibody, V domains shown)
VH: QVQLVESGGGVVQPGRSLRLSCAASGFIFSSYGMHWVRQAPGKGLEWVAVISYDGSNKYYADSVKGRFTISRDKSKNTLHLQMNSLRAEDTAVYYCAKDSGSNDDMDVWGKGTTVTVSS
VL: QSVLTQPPSVSAAPGQKVTISCSGSSSNIGNNYVSWYQQLPGTAPKLLIYDNNKRPSGIPDRFSGSKSGTSATLGITGLQTGDEADYYCGTWDSSLSAGVFGTGTKVTVLG
B4: binds [5]; binds (Dexd-box helicase 52).

B5: TTES1009 (antibody, V domains shown)
VH: EVQLVESGGGLVQPGGSLRLSCAASGFTFSSYEMNWVRQAPGKGLEWVSYISSSGSTIYYADSVKGRFTISRDNAKNSLYLQMNSLRAEDTAVYYCARRGFYYYYGMDVWGQGTTVTVSS
VL: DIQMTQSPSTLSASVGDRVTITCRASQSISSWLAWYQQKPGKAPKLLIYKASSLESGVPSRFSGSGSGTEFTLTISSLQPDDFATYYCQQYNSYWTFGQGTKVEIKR
B5: binds [6].

B6: TTES1012 (antibody, V domains shown)
VH: EVQLVESGGGLVQPGGSLRLSCAASGFTFSSYWMTWVRQAPGKGLEWVANIKQDGSEKYYVDSVKGRFTISRDNSKNSLYLQMNSLRAEDTAVYYCARAGYDLFGWFDPWGQGTLVTVSS
VL: SYELTQPPSVSVSPGQTARITCSGDALPKQYAYWYQQKPGQAPVLVIYKDSERPSGIPERFSGSSSGTTVTLTISGVQAEDEADYYCQSADSSGTYVFGTGTKVTVLG
B6: binds (G antigen 2A).

B7: TTHY1002 (antibody, V domains shown)
VH: EVQVVESGGGLGQPGGSLRLSCAASGFTFSSYSMNWVRQAPGKGLEWVSYISSSSSTKYYADSVKGRFTISRDNAKKSLYLQMNSLRDEDTAVYYCASPVRPWGQGTLVTVSS
VL: EIVMTQSPATLSVSPGERATLSCRASQSVSSNLAWYQQKPGQAPRLLIYGASTRATGIPARFSGSGSGTEFTLTISSLQSEDFAIYYCQQYNSWPAFGGGTKVEIK
B7: binds [7].

B8: TTHY1003 (antibody, V domains shown)
VH: QVQLVQSGAEMKKPGTSVKVSCRTSGYIFTGSFMHWVRQAPAQGLEWMGWINPKTGATYYTEKFKGRVTLTRDTSINTAYMEMTSLRSDDTAVYYCARGFCDLPACYPVPQYNWFDPWGQGTLVTVSS
VL: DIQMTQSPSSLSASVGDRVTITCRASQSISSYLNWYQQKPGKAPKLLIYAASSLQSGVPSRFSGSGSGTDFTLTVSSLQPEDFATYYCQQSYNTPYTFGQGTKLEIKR
B8: binds [8].

B9: TTHY1004 (antibody, V domains shown)
VH: PVQLQESGPGLVKPSQTLSLTCTVSGGSISSGTYYWSWIRQPAGKGLEWIGRIYASGSTNYNPSLKSRVTISVDTSKNQFSLKLTSVTAADTAVYYCARYSGSYPLGFDYWGQGTLVTVSS
VL: DIQMTQSPSSLSASVGDRVTITCRASQSISTYLNWYQQKPGMAPKLLIYAASTLQSGVPSRFSGSGSATDYTLTISSLQPEDFATYYCQQSYNTPLTFGGGTKVDIKR
B9: binds (cancer/testis antigen 1A).
